The values below come from the nanobody polyreactivity screen of Harvey et al. (2022).

A short description of the series: yeast display, Sf9 membrane polyspecificity reagent, FACS + sequencing; frameworks hold sequencing errors. In outline:
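Polyreactivity labels are assigned by the sorting gate from which each nanobody was recovered. The gates were low and high (top ~1%), set on anti-HA fluorescence for expression and streptavidin fluorescence for reagent binding. Before sorting, galactose-induced (36–48 hours) yeast display cells were stained for 1 hour at 4 °C with 10% biotinylated, detergent-solubilized Sf9 membrane reagent.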
Turning to “QVQLVESGGGLVQAGGSLRLSCAASGFIFSTYAMGWYRQAPGKERELVAAITRGGRTYYADSVKGRFTISRDNAKNTVYLQMNSLIPEDTAVYYCAVFVHGDYWGQGTQVTVSS”, the “polyreactivity (PSR sort gate)” value was “high polyreactivity”.
For the sequence “QVQLVESGGGLVQAGGSLRLSCAASGFIFSWYAMGWYRQAPGKERELVAAINWSGDSTYYADSVKGRFTISRDNAKNTVYLQMNSLKPEDTAVYYCAADPSYWGDPYDYWGQGTQVTVSS”, the “polyreactivity (PSR sort gate)” value is listed as “high polyreactivity”.
The same measure for “QVQLVESGGGLVQAGGSLRLSCAASGFIFSWYAMGWYRQAPGKERELVAAITSGGRTNYADSVKGRFTISRDNAKNTVYLQMNSLKPEDTAVYYCAAAFYPFWPRYTSDYWGQGTQVTVSS”: “high polyreactivity”.
As for “QVQLVESGGGLVQAGGSLRLSCAASGFIFSYNAMGWYRQAPGKERVLVAAISSRGGSTYYADSVMGRFTISRDNAKNTVYLQMNSLKPEDTGVSYCAVASRRVYTAPYDYWGQGTQVTVSS”, the “polyreactivity (PSR sort gate)” value was “high polyreactivity”.
With “QVQLVESGGGLVQAGGSLRLSCAASGFIFSYNAMGWYRTAPGTERELDAAISSSGGTTYYADSVKGRFTISRYNAKNTVYLQMNSLKPEDTAVYYCAADGRTYHHLDGGWYRYDYWGQGTQVTVSS”, the “polyreactivity (PSR sort gate)” value was “low polyreactivity”.
Regarding “QVQLVESGGGLVQAGGSLRLSCAASGFIFSYYAMGWYRQAPGKERELLAAISRNGGRTYYADSVKGRFTISRDNAKNTVYLQMNSLKPEDTAVYYCAATTYRTSSYIRYGSPKHDDYWGQGTQVTVSS”, the “polyreactivity (PSR sort gate)” value is “high polyreactivity”.
Consider “QVQLVESGGGLVQAGGSLRLSCAASGFIFSYYAMGWYRQAPGKERELVAAITSGGSTNYADSVKGRFTISRDNAKNTVYLQMNSLKPEDTAVFYCATAGSGGIGLFYSYDYWGQGTQVTVSS”, for which the “polyreactivity (PSR sort gate)” value is given as “low polyreactivity”.
Consider “QVQLVESGGGLVQAGGSLRLSCAASGFIFSYYAMGWYRQAPGKERELVATITRSGGRTYYADSVKGRFTISRDNAKNTVYLQMNSLKPEDTAVYYCAADYYYKDDSWGQGTQVTVSS”, for which the “polyreactivity (PSR sort gate)” value was “high polyreactivity”.
Turning to “QVQLVESGGGLVQAGGSLRLSCAASGFIFSYYVMGWYRQAPGKERELVAGISKRGGSTRYADSVKGRFTISRDNAKNTVYLQMNSLKPEDTAVYYCNRLPYLHFAGRLTNYDYWGQGTQVTVSS”, the “polyreactivity (PSR sort gate)” value is “high polyreactivity”.
As for “QVQLVESGGGLVQAGGSLRLSCAASGFIFTDYAMGWYRQAPGKERELVAAISSGGRTYYADSVKGRFTISRDNAKNTVYLQMNSLKPEDTAVYYCARGGRAEGWGQGTQVTVSS”, the “polyreactivity (PSR sort gate)” value is on record as “high polyreactivity”.
Consider “QVQLVESGGGLVQAGGSLRLSCAASGFIFTGNVMGWYRQAPGKEREFVAAISRSGGNTYYADSVKGRFTISRDKAKNTVYLQMNSLKPEDTAVYYCAVPKHFVVSYDYWGQGTQVTVSS”, for which the “polyreactivity (PSR sort gate)” value was “high polyreactivity”.
As to “QVQLVESGGGLVQAGGSLRLSCAASGFIFTKYVMGWYRQAPGKERELVAAISSGGGRTYYADSVKGRFTISRDNGKYTVYLQMNSQKPEDTAVYYCNIDDERGKLYYWGQGTQVTVSS”, the “polyreactivity (PSR sort gate)” value is listed as “high polyreactivity”.
On to “QVQLVESGGGLVQAGGSLRLSCAASGFIFTLYAMGWYRQAPGKEREFVAAISWSDGSTTYADSVKGRFTISRDNAKNSVYSQMYSLKPEDTAVYYCADVTCSYIRGLVYHFYYWGQGTQVTVSS”, for which the “polyreactivity (PSR sort gate)” value is “low polyreactivity”.
As for “QVQLVESGGGLVQAGGSLRLSCAASGFIFTLYAMGWYRQAPGKERELVADISFNSGNTYYADSVKGRFTISRDNAKNTVYLQMNSLIPEDTAVYYCAVDLYFVGDVYEGYLGGDYLGQGTQVTVSS”, the “polyreactivity (PSR sort gate)” value is “low polyreactivity”.
As for “QVQLVESGGGLVQAGGSLRLSCAASGFIFTPYTKGWYRQATGKERELVAAITDGSSTYYADSVKGRFTISRDNAKNTVYLQMNSLKPEDTAVYYCNADTLTTTRRFNPYDYWGQGTQVTVSS”, the “polyreactivity (PSR sort gate)” value is listed as “low polyreactivity”.
In the case of “QVQLVESGGGLVQAGGSLRLSCAASGFIFTQNAMGWYRQAPGKERELVARISRRGGSTYYADSVKGRFTISRDNAKNTVYLQMNSLKPEDTAVYYCAATINYPGPTRFVSGNHDYWGQGTQVTVSS”, the “polyreactivity (PSR sort gate)” value was “high polyreactivity”.
As for “QVQLVESGGGLVQAGGSLRLSCAASGFIFTQYAMGWYRPAPGKEWELVAAITRSGGRTYYADSVKGRFTISRDNAKNTVYIQMNSLKPEDTAVYYCAVDTVTRTVLVYGDRNDSWGQGTQVTVSS”, the “polyreactivity (PSR sort gate)” value is “high polyreactivity”.
The same measure for “QVQLVESGGGLVQAGGSLRLSCAASGFIFTQYAMGWYRQAPGKERELVAGITSSGNTYYADSVKGRFTISRDNAKNTVYLQMNSLKPEDTAVYYCAARSYVRRFDGGYWGQGTQVTVSS”: “high polyreactivity”.
With “QVQLVESGGGLVQAGGSLRLSCAASGFIFTRNVMGWYRQAPGKERELVAAISSGGRTYYADSVKGRFTISRDNAKNTVYLQMNRLKPEDTAVYYCSIVSKFTGDYGYWGQGTQVTVSS”, the “polyreactivity (PSR sort gate)” value is “high polyreactivity”.
On to “QVQLVESGGGLVQAGGSLRLSCAASGFIFTRYAMGWYRQAPGKERELVATITSGGSTNYADSVKGRFTISRDNAKNTVYLQMNSLKPEDTAVYYCTARWTGSYTSTGFRRRFDYWGQGTQVTVSS”, for which the “polyreactivity (PSR sort gate)” value is “high polyreactivity”.
The same measure for “QVQLVESGGGLVQAGGSLRLSCAASGFIFTSYAMGWYRQAPGKERELVAAISGSAASTYYADSVKGRFTISRDNAKNTVYLQMNSLKPEDTAVYYCAADYQGYTPSDGRYYWGQGTQVTVSS”: “low polyreactivity”.
For the sequence “QVQLVESGGGLVQAGGSLRLSCAASGFIFTVNAMGWYRQAPGKERELVAAITQSCGNTSYADSVKGRFTISRDNAKNTVYLQMNSLKPEDTAVYYCNASSDTSRYGVSTYYYWGQGTQVTVSS”, the “polyreactivity (PSR sort gate)” value is recorded as “low polyreactivity”.
“QVQLVESGGGLVQAGGSLRLSCAASGFIFTVNAMGWYRQAPGKERELVAAITQSGGNTSYADSVKGRFTISRDNAKNTVYLQMNSLKPEDTAVYYCNAEYTWPYHGVRNGWFNFKYEYWGQGTQVTVSS”: the “polyreactivity (PSR sort gate)” value is on record as “low polyreactivity”.
Regarding “QVQLVESGGGLVQAGGSLRLSCAASGFIFVANAMGWYRQAPGKERELVADINRGSTYYADSVKGRFTISRDNAKNTVYLQMNSLKPEDTAVYYCNRVYTQTYNPWGFEYWGQGTQVTVSS”, the “polyreactivity (PSR sort gate)” value was “high polyreactivity”.
Consider “QVQLVESGGGLVQAGGSLRLSCAASGFIFVDYAMGWYRQAPGKERELVASIDRSDGSTYYADSVKGRFTISRDNAKKTVYLQMNSLKPEDTAVYYCAADDPLYSISTGDYWGQGTQVTVSL”, for which the “polyreactivity (PSR sort gate)” value is recorded as “low polyreactivity”.
The same measure for “QVQLVESGGGLVQAGGSLRLSCAASGFIFVGNAMGWYRQAHGKERELVAAISRRGSRTFYADSVKARFTISRDNAKNTVYLQMNSLKPEETAVYYCAAEGYYVTPFDYWGQGTQVTVSS”: “high polyreactivity”.
Regarding “QVQLVESGGGLVQAGGSLRLSCAASGFIFVGYGMGWYRQAPGKERELVAVITASGGSTYYADSVKGRFTISRDYAKKTVYLQMNSLKPEATAVYYCAARVGRYGYSEYYYWGHGTQVTVSS”, the “polyreactivity (PSR sort gate)” value is given as “high polyreactivity”.
As for “QVQLVESGGGLVQAGGSLRLSCAASGFIFVKNAMGWYRQAPGKERELVAVISTRGGRTYYADSVKGRFTISRDNAKNTVYLQMNSLKPEDTAVYYCAADIWFYTYYEYDYWGQGTQVTVSS”, the “polyreactivity (PSR sort gate)” value is “high polyreactivity”.
The result for “QVQLVESGGGLVQAGGSLRLSCAASGFIFVKNAMGWYRQAPGKERELVAVISTRGGRTYYADSVKGRFTISRDNAKNTVYLQMNSLKPEDTAVYYCAAGDQYKTRRNGYGYWGQGTQVTVSS” reads “high polyreactivity”; that for “QVQLVESGGGLVQAGGSLRLSCAASGFIFVKNAMGWYRQAPGKESELVAVISTRGGRTYYADSVKGRFTISRDNAKNTVYLQMNSLKPEDTAVYYCAAGDQYKTRRNGYGYWGQGTQVTVSS”, “high polyreactivity”.
Turning to “QVQLVESGGGLVQAGGSLRLSCAASGFIFVKYAIGWYRTAPGKERELVAAITTSGTGTFYADSVKGRFTISRDNAKNTVYLQMNSLKPEDTAVYYCNALGHPGDDWGQGTQVTVSS”, the “polyreactivity (PSR sort gate)” value is recorded as “low polyreactivity”.
Take “QVQLVESGGGLVQAGGSLRLSCAASGFIFVKYAMGWYRQAPGKERELVAAISWSGGTTYYSDSVKGRFTISRDNAKNTVYLKMNSLKPEDTAVYYCAAEYYTGYFKYDYWGQGTQVTVSS”: the “polyreactivity (PSR sort gate)” value was “high polyreactivity”.
For the sequence “QVQLVESGGGLVQAGGSLRLSCAASGFIFVLYAMGWYRQAPGKERELVAAITWSTGSTYYADSVKGRFTISRDNAKNTVYLQMNSLKPEDTAVYYCAADQYIFGIWFDYWGQGTQVTVSS”, the “polyreactivity (PSR sort gate)” value is given as “high polyreactivity”.
The result for “QVQLVESGGGLVQAGGSLRLSCAASGFIFVRNAMGWYRQAPGKERELVAAISSRGGRTYYADSVKGRFTISRDNAKNTVYLQMNSLKPEDTAVYYCNADRDTQGDGYDYWGQGTQVTVSS” reads “high polyreactivity”; that for “QVQLVESGGGLVQAGGSLRLSCAASGFIFVRNAMGWYRQAPGKERELVAAITGRGGRTYYADSVKGRFTISRDNAKNTVYLQMNSLKPEVTAVYYCAIDSPDDHFGYWGQGTQVTVSS”, “high polyreactivity”.
With “QVQLVESGGGLVQAGGSLRLSCAASGFIFVRYAMGWYRPAPGKERELVAVITSGGSTYYADSVKGRFTISRDNAKNTVYLQMNSLKPEDTAVYYCAAQSKRYVRSYSWYDYWGQGTQVTVSS”, the “polyreactivity (PSR sort gate)” value is reported as “high polyreactivity”.
In the case of “QVQLVESGGGLVQAGGSLRLSCAASGFIFVRYAMGWYRQAPGKERELVAAISSGGSTQYADSVKGRFTISRDNAKNTVDLQMNSLKPEDTPVYYCAAAATPGRGGDYWGQGTQVTVSS”, the “polyreactivity (PSR sort gate)” value is given as “high polyreactivity”.
The same measure for “QVQLVESGGGLVQAGGSLRLSCAASGFIFVRYAMGWYRQAPGKEREMVAAISSGGSTKYADSVKGRFTISRDNAKNTVYLQMNSLKPEDTAVYYCAADATPGRGVDYWGQGTQVTVSS”: “high polyreactivity”.
As to “QVQLVESGGGLVQAGGSLRLSCAASGFIFVSYAMGWYRPAPGKERELVAAIDRIGGITYYADSVKGRFTISRDNAKNTVYLQMNSLKPEDTAVYYCAAAARYATVRVGREYYWGQGTQVTVSS”, the “polyreactivity (PSR sort gate)” value is reported as “low polyreactivity”.
Regarding “QVQLVESGGGLVQAGGSLRLSCAASGFIFVWYAMGWYRQAPGKERELVAAINGGGRTNYADSVKGRFTISRDNAKYTVYLQMNSLKPEDTAVYYGAAVSYYKSYGEFDYWGQGTQVTVSL”, the “polyreactivity (PSR sort gate)” value is reported as “high polyreactivity”.
